Test results taken from patent publication US20090054337A1.

Biological target: natriuretic peptide receptor-B (NPR-B) on human aortic endothelial cells (human) (UniProt P20594)
Experiment: cell-based or functional assay

Sequence of UniProt P20594 (P20594 23-1047): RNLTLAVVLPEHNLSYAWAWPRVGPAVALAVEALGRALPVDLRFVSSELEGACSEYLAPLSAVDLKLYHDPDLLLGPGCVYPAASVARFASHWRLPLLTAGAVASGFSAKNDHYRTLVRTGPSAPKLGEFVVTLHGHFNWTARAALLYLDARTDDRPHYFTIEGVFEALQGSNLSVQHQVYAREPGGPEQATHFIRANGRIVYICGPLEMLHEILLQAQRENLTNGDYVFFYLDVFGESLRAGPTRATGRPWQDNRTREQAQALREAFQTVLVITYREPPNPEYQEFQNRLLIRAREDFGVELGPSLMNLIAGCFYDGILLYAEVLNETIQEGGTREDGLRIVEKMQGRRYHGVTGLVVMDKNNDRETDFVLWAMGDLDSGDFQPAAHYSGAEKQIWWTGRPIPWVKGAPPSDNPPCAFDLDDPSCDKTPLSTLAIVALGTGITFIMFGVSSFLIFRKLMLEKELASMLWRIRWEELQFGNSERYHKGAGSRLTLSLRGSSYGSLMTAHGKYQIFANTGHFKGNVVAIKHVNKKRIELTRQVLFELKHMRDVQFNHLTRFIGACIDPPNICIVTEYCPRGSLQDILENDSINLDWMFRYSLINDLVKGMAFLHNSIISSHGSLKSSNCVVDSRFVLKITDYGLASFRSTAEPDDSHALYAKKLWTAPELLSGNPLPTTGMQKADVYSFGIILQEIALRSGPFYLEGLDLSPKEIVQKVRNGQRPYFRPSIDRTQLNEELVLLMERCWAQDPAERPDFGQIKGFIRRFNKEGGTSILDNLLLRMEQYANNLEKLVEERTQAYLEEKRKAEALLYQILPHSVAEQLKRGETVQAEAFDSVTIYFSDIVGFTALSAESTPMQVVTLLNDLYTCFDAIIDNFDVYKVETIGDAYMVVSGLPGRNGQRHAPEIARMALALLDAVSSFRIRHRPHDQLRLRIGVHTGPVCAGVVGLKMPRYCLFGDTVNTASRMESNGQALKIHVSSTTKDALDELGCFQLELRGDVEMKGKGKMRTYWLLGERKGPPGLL

cGMP in HAEC with 10^-6 M CNP in the presence of the NPR-B antibody (1:100): 0.08 pmol/mL
cGMP in HAEC with 10^-6 M CNP, no antibody: 0.17 pmol/mL
Substance: human CNP (from UniProt P23582 74-126) (peptide)
